The target of the assay is T1, TNF (UniProt P01375 77-233).
T1 construct: also called TNF-α; Tumor Necrosis Factor-α
Description: ELISA on solid-phase TNF (screen of the affinity maturation libraries). (An ELISA detects its analyte on a solid surface through an enzyme-linked reagent.)

T1 sequence (P01375 77-233 limits assumed): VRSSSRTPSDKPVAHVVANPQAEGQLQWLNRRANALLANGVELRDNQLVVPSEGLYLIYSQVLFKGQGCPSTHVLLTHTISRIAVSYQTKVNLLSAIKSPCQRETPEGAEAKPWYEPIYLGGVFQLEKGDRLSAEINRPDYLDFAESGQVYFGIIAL

B1: Compound 100 (other)
VL: DIQMTQSPSSLSASVGDRVTITCRASQSIDSYLHWYQQKPGKAPKLLIYSASNLETGVPSRFSGSGSGTDFTLTISSLLPEDFATYYCQQVVWRPFTFGQGTKVEIKR
notes: Domain antibody (dAb); also called anti-TNF dAb Compound 100
For B1, the binding result is reported as “binds”.

B2: Compound 123 (other)
VL: DIQMTQSPSSLSASVGDRVTITCRASQAIDSYLHWYQQKPGKAPKLLIYSASNLETGVPSRFSGSGSGTDFTLTISSLQPEDFATYYCQQVVWRPFTFGQGTKVEIKR
notes: Domain antibody (dAb)
B2: the binding result is “binds”.

For the origin of these results see patent US20090286962A1 (published 2009).
